According to patent US20090118161A1 (BAYLOR COLLEGE OF MEDICINE, published 2009):

T1: polymerized human fibrin (human, UniProt P02671 36-629; P02675 45-491; P02679 27-437, limits assumed)
T1 construct: Immobilized polymerized fibrin; preparation not described
T1 sequence (looked up) 1: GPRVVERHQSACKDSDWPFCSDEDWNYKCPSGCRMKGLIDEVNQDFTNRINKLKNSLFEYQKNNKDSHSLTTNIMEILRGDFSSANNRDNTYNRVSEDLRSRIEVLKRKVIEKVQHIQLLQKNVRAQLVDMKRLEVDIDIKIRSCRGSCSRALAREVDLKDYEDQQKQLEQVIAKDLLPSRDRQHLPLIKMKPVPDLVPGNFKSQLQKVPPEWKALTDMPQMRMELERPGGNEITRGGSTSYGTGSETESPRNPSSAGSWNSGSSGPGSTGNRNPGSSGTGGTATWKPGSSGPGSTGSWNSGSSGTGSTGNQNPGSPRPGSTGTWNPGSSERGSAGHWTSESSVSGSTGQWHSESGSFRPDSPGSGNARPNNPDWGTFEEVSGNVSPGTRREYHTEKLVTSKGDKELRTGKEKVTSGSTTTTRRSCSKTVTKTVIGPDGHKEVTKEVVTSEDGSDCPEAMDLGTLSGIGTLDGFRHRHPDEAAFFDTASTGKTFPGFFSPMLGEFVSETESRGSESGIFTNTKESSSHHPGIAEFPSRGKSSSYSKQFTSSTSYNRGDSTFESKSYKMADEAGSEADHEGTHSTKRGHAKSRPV
T1 sequence (looked up) 2: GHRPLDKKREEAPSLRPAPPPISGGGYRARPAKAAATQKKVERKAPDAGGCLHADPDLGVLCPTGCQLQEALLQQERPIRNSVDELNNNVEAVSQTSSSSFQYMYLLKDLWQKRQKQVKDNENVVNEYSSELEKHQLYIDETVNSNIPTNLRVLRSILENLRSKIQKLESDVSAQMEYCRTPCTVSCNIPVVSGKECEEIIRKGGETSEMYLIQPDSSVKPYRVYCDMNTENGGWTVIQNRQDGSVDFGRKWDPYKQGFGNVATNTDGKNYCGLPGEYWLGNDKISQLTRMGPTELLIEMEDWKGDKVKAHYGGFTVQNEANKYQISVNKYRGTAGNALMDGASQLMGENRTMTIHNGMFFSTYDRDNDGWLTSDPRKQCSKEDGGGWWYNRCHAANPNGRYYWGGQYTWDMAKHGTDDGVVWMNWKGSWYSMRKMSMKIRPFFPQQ
T1 sequence (looked up) 3: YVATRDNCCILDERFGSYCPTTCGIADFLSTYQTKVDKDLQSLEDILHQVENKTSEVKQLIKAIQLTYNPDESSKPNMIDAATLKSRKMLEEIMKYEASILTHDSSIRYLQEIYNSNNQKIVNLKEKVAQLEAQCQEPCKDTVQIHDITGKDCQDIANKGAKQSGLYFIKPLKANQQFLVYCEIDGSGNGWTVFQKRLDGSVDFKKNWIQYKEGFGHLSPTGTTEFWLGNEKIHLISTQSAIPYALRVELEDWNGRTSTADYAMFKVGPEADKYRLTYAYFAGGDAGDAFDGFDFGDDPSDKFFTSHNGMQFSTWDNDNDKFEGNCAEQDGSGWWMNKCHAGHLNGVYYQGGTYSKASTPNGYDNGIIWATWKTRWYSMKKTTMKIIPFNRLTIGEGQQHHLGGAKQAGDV

T2: immobilized human fibrinogen (human, UniProt P02671 20-629; P02675 31-491; P02679 27-437, limits assumed)
T2 sequence (looked up) 1: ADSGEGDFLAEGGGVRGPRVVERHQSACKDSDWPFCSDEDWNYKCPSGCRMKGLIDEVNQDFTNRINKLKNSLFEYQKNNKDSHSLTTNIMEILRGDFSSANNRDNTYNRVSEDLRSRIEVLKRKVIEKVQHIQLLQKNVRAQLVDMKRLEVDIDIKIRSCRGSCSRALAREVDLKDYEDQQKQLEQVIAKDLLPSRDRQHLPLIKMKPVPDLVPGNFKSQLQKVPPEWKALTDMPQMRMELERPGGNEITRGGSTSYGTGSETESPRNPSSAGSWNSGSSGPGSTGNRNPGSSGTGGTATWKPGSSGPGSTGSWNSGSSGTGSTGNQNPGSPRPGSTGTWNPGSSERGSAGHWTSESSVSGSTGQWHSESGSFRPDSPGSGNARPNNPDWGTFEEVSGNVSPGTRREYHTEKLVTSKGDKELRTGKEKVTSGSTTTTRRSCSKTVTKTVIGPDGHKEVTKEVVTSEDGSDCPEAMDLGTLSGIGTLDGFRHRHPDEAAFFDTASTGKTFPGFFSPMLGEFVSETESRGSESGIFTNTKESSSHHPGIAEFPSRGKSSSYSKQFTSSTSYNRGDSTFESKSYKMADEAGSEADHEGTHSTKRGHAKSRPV
T2 sequence (looked up) 2: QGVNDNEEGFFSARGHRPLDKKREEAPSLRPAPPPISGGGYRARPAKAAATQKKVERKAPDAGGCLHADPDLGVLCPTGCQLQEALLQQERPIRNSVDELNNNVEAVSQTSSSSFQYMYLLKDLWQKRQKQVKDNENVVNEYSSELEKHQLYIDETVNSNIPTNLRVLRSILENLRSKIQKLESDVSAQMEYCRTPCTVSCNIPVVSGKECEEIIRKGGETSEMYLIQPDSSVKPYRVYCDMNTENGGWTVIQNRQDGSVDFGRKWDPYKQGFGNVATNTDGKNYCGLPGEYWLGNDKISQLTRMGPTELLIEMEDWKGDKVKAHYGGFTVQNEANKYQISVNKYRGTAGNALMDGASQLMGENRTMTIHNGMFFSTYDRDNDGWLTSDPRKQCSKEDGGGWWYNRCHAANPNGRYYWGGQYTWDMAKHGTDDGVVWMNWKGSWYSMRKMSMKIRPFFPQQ
T2 sequence (looked up) 3: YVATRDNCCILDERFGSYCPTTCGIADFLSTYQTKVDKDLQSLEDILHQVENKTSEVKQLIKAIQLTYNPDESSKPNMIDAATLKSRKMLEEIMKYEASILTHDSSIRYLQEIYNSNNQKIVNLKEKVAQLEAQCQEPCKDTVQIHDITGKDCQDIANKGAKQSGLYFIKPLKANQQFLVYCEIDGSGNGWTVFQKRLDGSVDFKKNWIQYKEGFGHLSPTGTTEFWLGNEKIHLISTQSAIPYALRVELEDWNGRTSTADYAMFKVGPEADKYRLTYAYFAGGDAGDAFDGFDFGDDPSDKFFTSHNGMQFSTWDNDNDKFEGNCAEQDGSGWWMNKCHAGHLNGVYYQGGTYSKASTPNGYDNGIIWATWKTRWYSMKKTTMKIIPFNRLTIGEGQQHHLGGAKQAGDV


Legend:
[1] = target: T3, recombinant VWF-A1 domain polypeptide (amino acids Q1238-P1471) (human, UniProt P04275 1238-1471); test: binding of A2 to A1 domain polypeptide; half-maximal binding
T3 construct: range 1238-1471; Expressed in E. coli with an N-terminal His tag; also called A1 polypeptide; A1 protein; not shown: N-terminal His tag from the vector

polymerized human fibrin = target: T1, polymerized human fibrin; test: ELISA, increasing A2 on immobilized polymerized human fibrin, anti-His detection; half-maximal binding
[2] = target: T3, recombinant VWF-A1 domain polypeptide …; test: ELISA, A2 on immobilized A1; apparent KD
[3] = target: T3, recombinant VWF-A1 domain polypeptide …; test: ELISA, increasing A2 on immobilized A1 polypeptide, Anti-A2 detection; half-maximal binding
[4] = target: T4, multimeric von Willebrand factor purified from plasma or cryoprecipitate (UniProt P04275 764-2813); test: ELISA, A2 on immobilized VWF; apparent KD
T4 construct: mature; Disulfide-linked multimer of many subunits; number of subunits not fixed; Glycosylated; also called VWF; full length VWF

[5] = target: T4, multimeric von Willebrand factor …; test: ELISA, increasing A2 on immobilized plasma VWF, anti-His detection; half-maximal binding
[6] = target: T2, immobilized human fibrinogen; test: ELISA, increasing A2 on immobilized human fibrin(ogen), anti-His detection; half-maximal binding
[7] = target: T5, recombinant human vimentin (human, UniProt P08670 1-466, limits assumed); test: ELISA, A2 on immobilized recombinant human vimentin, detected with Anti-A2 or VP-1
T5 construct: also called immobilized vimentin
T5 sequence (P08670 whole entry): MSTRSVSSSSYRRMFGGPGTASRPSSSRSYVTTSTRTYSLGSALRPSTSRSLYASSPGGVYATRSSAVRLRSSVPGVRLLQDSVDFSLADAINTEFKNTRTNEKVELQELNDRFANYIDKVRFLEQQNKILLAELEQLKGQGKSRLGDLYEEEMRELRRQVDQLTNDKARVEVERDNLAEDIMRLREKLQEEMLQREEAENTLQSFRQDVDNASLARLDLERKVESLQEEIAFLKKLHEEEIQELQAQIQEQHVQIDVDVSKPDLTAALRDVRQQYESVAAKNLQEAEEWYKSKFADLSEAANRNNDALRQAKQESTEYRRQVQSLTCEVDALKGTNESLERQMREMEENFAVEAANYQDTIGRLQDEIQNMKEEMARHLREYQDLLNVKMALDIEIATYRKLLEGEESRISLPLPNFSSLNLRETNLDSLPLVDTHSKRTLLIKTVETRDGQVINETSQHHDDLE

[8] = target: T3, recombinant VWF-A1 domain polypeptide …; test: inhibition by A2 of binding of A1 domain (0.25 µM) to immobilized fixed platelets (GPIbα), static conditions
[9] = target: T3, recombinant VWF-A1 domain polypeptide …; test: binding of A2 to immobilized A1 domain polypeptide; half-maximal binding
[10] = target: T4, multimeric von Willebrand factor …; test: binding of A2 to full length VWF; half-maximal binding
[11] = target: T4, multimeric von Willebrand factor …; test: binding of A2 to immobilized full length VWF; half-maximal binding
[12] = target: T5, recombinant human vimentin; test: ELISA, A2 fragments on immobilized vimentin

EC50 [1] [nM]	EC50 (polymerized human fibrin) [nM]	Kd [2] [nM]	EC50 [3] [nM]	Kd [4] [nM]	EC50 [5] [nM]	EC50 [6] [nM]	binding result [7]	IC50 [8] [nM]	EC50 [9] [nM]	EC50 [10] [nM]	EC50 [11] [nM]	binding result [12]	Binder
60	150	~50	~65	~200	~200	150	binds	300	65	160	190	–	recombinant VWF-A2 domain polypeptide (amino acids G1481-R1668) (other, Expressed in E. coli as a fusion protein with a His tag at the N terminus; monomeric on SDS-PAGE; also called A2 protein; VWF-A2 protein; not shown: N-terminal His tag from the vector) GLLGVSTLGPKRNSMVLDVAFVLEGSDKIGEADFNRSKEFMEEVIQRMDVGQDSIHVTVLQYSYMVTVEYPFSEAQSKGDILQRVREIRYQGGNRTNTGLALRYLSDHSFLVSQGDREQAPNLVYMVTGNPASDEIKRLPGDIQVVPIGVGPNANVQELERIGWPNAPILIQDFETLPREAPDLVLQR
–	–	–	–	–	–	–	–	–	–	–	–	binds	N-terminal fragment polypeptide of A2 (A2 G1481-Y1605) (other, Expressed in bacteria; also called N-terminal (half) of the A2 domain of VWF) GLLGVSTLGPKRNSMVLDVAFVLEGSDKIGEADFNRSKEFMEEVIQRMDVGQDSIHVTVLQYSYMVTVEYPFSEAQSKGDILQRVREIRYQGGNRTNTGLALRYLSDHSFLVSQGDREQAPNLVY
